The source of these data is patent US20230201322A1.

Assay [1] has as its target HLA-A*0201 molecule expressed on the human tumoral cell T2 (human). Description: T2 cell HLA-A2 FACS (BB7.2-PE), peptide 1 µM.
The target is the same in assay [2]. Put plainly: T2 cell HLA-A2 FACS (BB7.2-PE), peptide 1 µM. This is another data set of the same source.
Assay [3] shares this target. Put plainly: T2 cell HLA-A2 FACS (BB7.2-PE), peptide 1 µM. The source holds these as a separate data set.
The target is the same in assay [4]. Description: T2 cell HLA-A2 FACS (BB7.2-PE), peptide 10 µM.
Assay [5] has the same target. Description: T2 cell HLA-A2 FACS (BB7.2-PE), peptide 10 µM. The source holds these as a separate data set.
Assay [6] has the same target. Description: T2 cell HLA-A2 FACS (BB7.2-PE), peptide 10 µM. This is another data set of the same source.
For assay [7] the target is unchanged. Put plainly: T2 cell HLA-A2 FACS (BB7.2-PE), peptide 0.1 µM.
Assay [8] has the same target. Put plainly: T2 cell HLA-A2 FACS (BB7.2-PE), peptide 0.1 µM. The source holds these as a separate data set.
Assay [9] shares this target. Description: T2 cell HLA-A2 FACS (BB7.2-PE), peptide 0.1 µM. This is another data set of the same source.
For assay [10] the target is unchanged. Description: T2 cell HLA-A2 FACS (BB7.2-PE), peptide titration.
Assay [11] has the same target. Description: T2 cell HLA-A2 FACS (BB7.2-PE), peptide titration. This is another data set of the same source.
Assay [12] shares this target. Put plainly: T2 cell HLA-A2 FACS (BB7.2-PE), peptide titration. The source holds these as a separate data set.

Read-outs that look alike come from different tables or passages of the source.

As to reference peptide HIV pol 589-597, the HLA-A2 labelling as % of reference peptide HIV pol 589-597 at 100 µM in [1] was -5.38%; in assay [2], -2.54%; in assay [3], 4.65%; in assay [4], -3.03%; in assay [5] it was 3.8%; in [6] it was 8.8%. For the same substance, the values for the HLA-A2 labelling as % of reference peptide HIV pol 589-597 at 100 µM in assay [7], in [8] and in assay [9] were -9.24%, 2.58% and 5.62%, respectively. Besides, the Conc. inducing 20% of HLA-A2 expression came to 36 µM in [10], 30.9 µM in [11] and 26.5 µM in assay [12].
